Measured values taken from patent publication US20130251707A1 (BALIOPHARM, published 2013).

How the values were obtained:
[1] = molecular target: T1, human TNFR1 on Kym-1, HeLa and HT1080 cells (human, UniProt P19438 30-455); experiment: cell-based or functional assay
T1 sequence (looked up): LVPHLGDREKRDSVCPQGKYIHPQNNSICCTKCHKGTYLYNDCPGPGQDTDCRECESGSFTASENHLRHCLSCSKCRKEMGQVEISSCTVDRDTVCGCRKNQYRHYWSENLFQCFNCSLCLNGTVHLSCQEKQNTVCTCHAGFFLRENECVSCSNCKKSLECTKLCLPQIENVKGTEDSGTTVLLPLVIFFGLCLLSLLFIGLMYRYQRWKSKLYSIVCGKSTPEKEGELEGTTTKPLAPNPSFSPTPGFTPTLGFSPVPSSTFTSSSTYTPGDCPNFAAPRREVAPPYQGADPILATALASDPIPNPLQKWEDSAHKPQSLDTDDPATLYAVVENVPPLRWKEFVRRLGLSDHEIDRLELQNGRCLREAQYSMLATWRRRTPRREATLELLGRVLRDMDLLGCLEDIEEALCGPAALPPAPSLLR

[2] = molecular target: T2, chimeric human/mouse TNFR1-Fc construct 4 (human CRD1 substituted by the mouse domain) (mouse; human, UniProt P25118 30-82; P19438 83-211, limits assumed); experiment: ELISA on chimeric TNFR1-Fc
T2 construct: not shown: Fc of vector pSecTagL1-Fc
T2 sequence (looked up): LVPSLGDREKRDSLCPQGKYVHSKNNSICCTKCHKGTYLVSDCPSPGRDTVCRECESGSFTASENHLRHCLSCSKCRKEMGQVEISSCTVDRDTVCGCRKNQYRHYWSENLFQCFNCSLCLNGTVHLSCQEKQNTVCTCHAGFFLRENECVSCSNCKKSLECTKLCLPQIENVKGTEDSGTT
Protocol: (§1) Antibodies (0.1 nM) were analyzed by ELISA for binding to the TNFR1-Fc fusion proteins. […] Cysteine residues are marked with grey boxes and the 2 positions (P23, Q24) analyzed by site-directed mutagenesis are marked by asterisks.

[3] = molecular target: T3, chimeric human/mouse TNFR1-Fc construct 5 (A1 domain of CRD1 of human TNFR1 exchanged with the mouse sequence) (mouse; human, UniProt P25118 30-58; P19438 59-211, limits assumed); experiment: ELISA on chimeric TNFR1-Fc
T3 construct: not shown: Fc of vector pSecTagL1-Fc
T3 sequence (looked up): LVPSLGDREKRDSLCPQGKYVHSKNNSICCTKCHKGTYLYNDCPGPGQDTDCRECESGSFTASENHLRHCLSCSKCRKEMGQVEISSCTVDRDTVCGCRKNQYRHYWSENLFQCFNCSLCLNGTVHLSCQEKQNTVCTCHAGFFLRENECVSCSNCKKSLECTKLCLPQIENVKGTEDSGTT
Protocol: as §1

[4] = molecular target: T4, chimeric human/mouse TNFR1-Fc construct 3 (human CRD1 and 2 substituted by the mouse domains) (mouse; human, UniProt P25118 30-125; P19438 126-211, limits assumed); experiment: ELISA on chimeric TNFR1-Fc
T4 construct: not shown: Fc of vector pSecTagL1-Fc
T4 sequence (looked up): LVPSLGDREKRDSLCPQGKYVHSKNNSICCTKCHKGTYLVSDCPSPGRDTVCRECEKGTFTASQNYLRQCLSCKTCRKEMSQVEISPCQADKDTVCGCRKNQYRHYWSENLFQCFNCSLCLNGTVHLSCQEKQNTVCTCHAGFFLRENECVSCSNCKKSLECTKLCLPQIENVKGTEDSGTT
Protocol: as §1

[5] = molecular target: T5, mouse TNFR1-Fc (mouse; human, UniProt P25118 30-212); experiment: ELISA on coated TNFR1-Fc (100 ng/well)
T5 construct: range 30-212; also called moTNFR1-Fc; not shown: Fc of vector pSecTagL1-Fc (human IgG1 Fc is stated for the human TNFR1-Fc)
T5 sequence (looked up): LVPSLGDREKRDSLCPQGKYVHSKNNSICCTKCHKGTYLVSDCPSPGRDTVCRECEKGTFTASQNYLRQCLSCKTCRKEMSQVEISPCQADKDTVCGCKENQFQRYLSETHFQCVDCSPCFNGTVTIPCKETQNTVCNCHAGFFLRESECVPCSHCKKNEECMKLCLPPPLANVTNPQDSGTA
Protocol: (100 ng/well). Binding was detected by HRP-conjugated anti-molgG (Fc-specific) antibody or anti-human Fab antibody, respectively. Binding of an anti-human Fc antibody (anti-Fc) was included as coating control.

[6] = molecular target: T6, human TNFR2-Fas on transfected mouse embryonic fibroblasts (human, UniProt P20333 23-257; P25445 191-335, limits assumed); experiment: flow cytometry on transfected MEF cells
T6 construct: extracellular domain;domain: intracellular domain; also called MEF-TNFR2-Fas
T6 sequence (looked up): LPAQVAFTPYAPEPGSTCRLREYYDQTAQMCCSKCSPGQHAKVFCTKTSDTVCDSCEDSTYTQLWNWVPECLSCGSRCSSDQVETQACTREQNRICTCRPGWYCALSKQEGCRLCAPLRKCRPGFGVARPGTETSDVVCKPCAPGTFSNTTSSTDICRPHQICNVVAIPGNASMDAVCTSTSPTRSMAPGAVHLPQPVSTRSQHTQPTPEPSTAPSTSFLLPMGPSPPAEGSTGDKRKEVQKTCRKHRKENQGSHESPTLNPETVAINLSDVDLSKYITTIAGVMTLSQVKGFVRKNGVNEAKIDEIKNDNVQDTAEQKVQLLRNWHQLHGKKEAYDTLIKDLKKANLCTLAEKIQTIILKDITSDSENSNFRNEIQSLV
Protocol: (§2) Binding to TNFR1-Fas or TNFR2-Fas transfected MEF cells was analyzed by flow cytometry. Cells (2×105) were incubated with dilution series of antibodies for 4 h at 4° C. Cells were then washed with PBS and bound antibodies were detected with PE-labeled goat anti-mouse or anti-human antibody. Cells were analyzed by flow cytometry (Cytomics FC 500, Beckmann-Coulter, Krefeld, Germany). Data were evaluated with the program WinMDI, version 2.9, and fitted with GraphPrism software (La Jolla, USA) from 3 independent binding curves.

[7] = molecular target: T7, chimeric human/mouse TNFR1-Fc construct 8 (mouse TNFR1 with human CRD1 and sub-domain A1 of CRD2) (human; mouse, UniProt P25118 100-212, limits assumed); experiment: ELISA on chimeric TNFR1-Fc, antibody 0.1 nM
T7 construct: The label hl-2A1/m2B2-4 is tied to construct 8 by inference; also called chimeric TNFR1 hl-2A1/m2B2-4; not shown: Fc of vector pSecTagL1-Fc
T7 sequence: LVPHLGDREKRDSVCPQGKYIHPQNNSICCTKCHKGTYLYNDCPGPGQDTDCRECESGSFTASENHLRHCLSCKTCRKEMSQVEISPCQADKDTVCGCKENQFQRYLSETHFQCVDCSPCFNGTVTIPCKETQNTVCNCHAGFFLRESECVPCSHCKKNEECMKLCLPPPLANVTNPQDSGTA
Protocol: as §1

[8] = molecular target: T8, human TNFR1-Fas on transfected mouse embryonic fibroblasts (human, UniProt P19438 30-211; P25445 191-335, limits assumed); experiment: flow cytometry, titration on MEF-TNFR1-Fas cells
T8 construct: extracellular domain;domain: intracellular domain; also called MEF-TNFR1-Fas
T8 sequence (looked up): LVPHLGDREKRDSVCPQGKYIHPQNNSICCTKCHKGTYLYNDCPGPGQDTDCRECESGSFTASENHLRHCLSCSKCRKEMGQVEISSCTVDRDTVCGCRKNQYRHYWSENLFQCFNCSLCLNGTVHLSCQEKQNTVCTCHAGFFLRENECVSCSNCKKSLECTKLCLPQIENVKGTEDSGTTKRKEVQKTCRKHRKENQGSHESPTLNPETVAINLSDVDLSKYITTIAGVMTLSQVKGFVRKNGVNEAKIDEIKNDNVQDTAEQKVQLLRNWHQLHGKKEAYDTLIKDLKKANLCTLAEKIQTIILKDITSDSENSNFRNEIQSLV
Protocol: as §2

[9] = molecular target: T9, human TNFR1-Fc (human, UniProt P19438 29-211); experiment: quartz crystal microbalance, TNFR1-Fc immobilized
T9 construct: range 29-211; also called huTNFR1-Fc; recombinant human TNFR1-Fc fusion protein; not shown: human IgG1 Fc region (vector pSecTagL1-Fc)
T9 sequence (looked up): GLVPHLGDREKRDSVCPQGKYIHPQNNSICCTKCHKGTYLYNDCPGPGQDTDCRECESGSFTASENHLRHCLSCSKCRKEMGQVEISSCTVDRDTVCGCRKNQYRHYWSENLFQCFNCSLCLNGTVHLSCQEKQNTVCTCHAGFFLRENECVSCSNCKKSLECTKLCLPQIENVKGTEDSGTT
Protocol: (§3) Affinities of the antibodies were determined by quartz crystal microbalance measurements (QCM; Attana A-100 C-Fast system, Stockholm, Sweden). Binding experiments were performed in PBS 0.005% Tween 20 at a flow rate of 25 to 35 μl/min and temperature was controlled at 20° C. The TNFR1-Fc fusion proteins were chemically immobilized on an Attana carboxyl sensor chip by amine coupling at a concentration of 50 μg/ml according to the manufacturer's protocol resulting in a signal increase (frequency shift) of approximately 200 Hz. Antibodies were analyzed at concentration between 62.5 and 3.9 nM (4 measurements per concentration). The chip was regenerated with 10 mM glycine-HCl, pH 3.0. Buffer injections were performed prior to each sample injection to use as a reference in Attester Evaluation. Data were collected by Attester 3.0 (Version 3.1.1.8, Attana, Stockholm, Sweden) and analyzed by ClampXP (Myszka and Morton 1998). A mass transport model (Myszka 1997) was fitted to the data.

[10] = molecular target: T10, rhesus TNFR1-Fc (rhesus; human, UniProt A0A1D5QSM0 27-209); experiment: quartz crystal microbalance, TNFR1-Fc immobilized
T10 construct: range 27-209; also called rheTNFR1-Fc; not shown: Fc of vector pSecTagL1-Fc (human IgG1 Fc is stated for the human TNFR1-Fc)
T10 sequence: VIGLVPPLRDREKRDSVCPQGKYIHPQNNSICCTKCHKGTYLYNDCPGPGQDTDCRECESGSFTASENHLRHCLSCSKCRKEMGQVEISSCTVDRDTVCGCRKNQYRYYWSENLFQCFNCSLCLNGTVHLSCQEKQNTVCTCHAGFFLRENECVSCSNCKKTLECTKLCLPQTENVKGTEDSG
Protocol: as §3

B1: ATROSAB (antibody, human IgG1, kappa, V domains shown)
VH: QVQLVQSGAEVKKPGSSVKVSCKASGYTFTDFYINWVRQAPGQGLEWIGEIYPYSGHAYYNEKFKARVTITADKSTSTAYMELSSLRSEDTAVYYCARWDFLDYWGQGTTVTVSS
VL: DIVMTQSPLSLPVTPGEPASISCRSSQSLLHSNGNTYLHWYLQKPGQSPQLLIYTVSNRFSGVPDRFSGSGSGTDFTLKISRVEAEDVGVYYCSQSTHVPYTFGGGTKVEIKR
notes: Humanized full-length human IgG1 made in CHO cells; Effector-deficient Fc (IgG1e3: E233P/L234V/L235A/deltaG236, A327G/A330S/P331S), allotype G1m-1,17; also called IZI-06.1 IgG; humanized H398 IgG1
IC50, inhibition of TNF-induced IL-6 release from HeLa cells [1]: 60 nM
IC50, inhibition of TNF-induced IL-8 release from HT1080 cells [1]: 60 nM
binding result [2]: no binding (tested: 0.1 nM)
binding result [3]: no binding (tested: 0.1 nM)
binding result [4]: no binding (tested: 0.1 nM)
binding result [5]: no binding (tested: 5 ug/ml)
binding result [6]: no binding
binding result [7]: binds
EC50 [8]: ~0.1 nM
Kd [9]: 0.35 nM
koff [9]: 0.00013 s⁻¹
kon [9]: 380000 M⁻¹ s⁻¹
Kd [10]: 0.1 nM
koff [10]: 6.7e-05 s⁻¹
kon [10]: 690000 M⁻¹ s⁻¹

B2: H398 (antibody, V domains shown)
VH: QVQLQESGAELARPGASVKLSCKASGYTFTDFYINWVKQRTGQGLEWIGEIYPYSGHAYYNEKFKAKATLTADKSSSTAFMQLNSLTSEDSAVYFCVRWDFLDYWGQGTTLTVSS
VL: DIVMTQSPLSLPVSLGDQASISCRSSQSLLHSNGNTYLHWYVQKPGQSPKLLIYTVSNRFSGVPDRFSGSGSGTDFTLKISRVEAEDLGVYFCSQSTHVPYTFGGGTKLEIK
IC50, inhibition of TNF-induced IL-6 release from HeLa cells [1]: 6 nM
IC50, inhibition of TNF-induced IL-8 release from HT1080 cells [1]: 6 nM
EC50 [8]: ~0.1 nM
Kd [9]: 0.23 nM
koff [9]: 7e-05 s⁻¹
kon [9]: 310000 M⁻¹ s⁻¹
Kd [10]: 0.49 nM
koff [10]: 0.0001 s⁻¹
kon [10]: 210000 M⁻¹ s⁻¹
